Experimental data from patent US20230406935A1 (F STAR THERAPEUTICS, published 2023).
Residue numbers refer to the chain shown, from its start. Read-outs that look alike come from different tables or passages of the source.

What was measured:
[1] = molecular target: T1, Human PD-L1 expressed on cells (human, UniProt Q9NZQ7 19-290); experiment: cell-based or functional assay
[2] = molecular target: T2, Monomeric His-tagged human PD-L1 (Acro biosystems PD1-H5229) (human, UniProt Q9NZQ7 19-238); experiment: SPR Biacore T200 as Example 5.1, anti-Fab capture, monomeric hPD-L1-his
T2 construct: also called hPD-L1-his; PD-L1-his
Method: Fcab and mAb² binding to human PD-L1 was assessed by both BIAcore and in a cell binding assay. To measure the affinity of the clones to monomeric hPD-L1-his, the mAb² were captured using an anti-Fab antibody coated on a CM5 chip (GE 28-9582-20 AC) and Fcabs were captured using a Protein A chip (GE 29127556) using a Biacore T200 (GE). To minimize mass transport effects, the capture level was minimized to 200RU and a fast flow rate of 75 μl/min was used. […] The analysis of the data was done using the Biacore T200 evaluation software. Curves subtracted against a blank flow cell and a run with no antigen were analysed using a 1:1 fitting model with no bulk analysis and Rmax analysed locally.
The selected CH3 domain sequences were subcloned and expressed in “mock” (MSL109) mAb² format with the LALA mutation in the CH2 domain, as described in Example 4.2.1, for further screening.

[3] = molecular target: T1, Human PD-L1 expressed on cells; experiment: cell-based blocking of biotinylated PD-1 Fc binding to HEK 293 hPD-L1 cells, flow cytometry
Method: The blocking activity of the clones produced in Example 2.2.1 was analysed in a cell-based assay using HEK 293 cells overexpressing human PD-L1 (see 1.5 for development of the cell line). Briefly, HEK 293 cells expressing human PD-L1 were seeded at 1×10⁵ cells per well in a V-bottom 96-well plate in PBS. […] The plates were centrifuged at 1500 rpm for 3 minutes at 4° C. to pellet the cells. […] The plates were centrifuged at 1500 rpm for 3 minutes at 4° C. to pellet the cells, supernatant was discarded and the cells were resuspended in PBS. Streptavidin conjugated to Alexa 488 was diluted 1:1000 in PBS and 100 μl was added to the wells for 30 minutes at 4° C. The plates were centrifuged at 1500 rpm for 3 minutes at 4° C. to pellet the cells, supernatant discarded and the cells were resuspended in PBS with DAPI. The plate was read on FACS Canto (BD Bioscience) and the data analysed using FlowJoX.

[4] = molecular target: T2, Monomeric His-tagged human PD-L1 (Acro …); experiment: SPR Biacore, captured on protein A, monomeric PD-L1-his in flow, 1:1 fit
Method: The monomeric PD-L1-his human antigen was flowed over the chip in titrating concentrations at a high flow rate to minimise mass transport limitations. The KDS were measured using a 1:1 fitting analysis with no refractive index correction and Rₘₐₓ set to local.

[5] = molecular target: T3, Monomeric cynomolgus PD-L1 (Acro Biosciences PD1-C52H4) (cynomolgus, UniProt Q9NZQ7 19-238 (human entry)); experiment: SPR Biacore T200, mAb^2 captured by anti-Fab on CM5, monomeric antigen in flow, 1:1 fit
T3 construct: also called cynomolgus monomeric PD-L1

[6] = molecular target: T2, Monomeric His-tagged human PD-L1 (Acro …); experiment: as above
[7] = molecular target: T1, Human PD-L1 expressed on cells; experiment: flow cytometry, HEK293 cells overexpressing the target, anti-human Fc 488
Method: (§1) Cell binding assays were performed by incubating Fcabs or mAb² proteins with either control HEK293 cells or HEK293 cells overexpressing hPD-L1 or cynomolgus PD-L1 cells for 1 hour at 4° C. Fcab/mAb binding was subsequently detected using an anti-human Fc 488 detection antibody. Fluorescent signal intensities were measured using a FACS canto.

[8] = molecular target: T4, Cynomolgus PD-L1 expressed on HEK 293 cells (cynomolgus, UniProt Q9NZQ7 19-290 (human entry)); experiment: as above
T4 construct: also called cell-expressed cynomolgus PD-L1
Method: as §1

[9] = molecular target: T1, Human PD-L1 expressed on cells; experiment: cell-based or functional assay; remark: listed apart in the source
[10] = molecular target: T2, Monomeric His-tagged human PD-L1 (Acro …); experiment: off-rate on PD-L1, mock mAb^2; instrument not given
[11] = molecular target: T1, Human PD-L1 expressed on cells; experiment: cell-based or functional assay; remark: listed apart in the source
[12] = molecular target: T2, Monomeric His-tagged human PD-L1 (Acro …); experiment: off-rate, binding to hPD-L1, mock mAb^2; instrument not stated
[13] = molecular target: T3, Monomeric cynomolgus PD-L1 (Acro …); experiment: SPR Biacore T200, Fcab captured on protein A chip, monomeric antigen in flow, 1:1 fit
[14] = molecular target: T2, Monomeric His-tagged human PD-L1 (Acro …); experiment: as above
[15] = molecular target: T5, Biotinylated hPD-L1-Fc-Avi (human, UniProt Q9NZQ7 19-238); experiment: cell-based RBA, blocking of hPD-L1-Fc-Avi binding to HEK293 hPD-1 cells
Method: (§2) The ability of the Fcabs and mock mAb² to block hPD-1/hPD-L1 and hPD-L1/hCD80 interactions was tested in cell-based Receptor Binding Assays (RBA). […] The mix was incubated for another hour with HEK293 cells overexpressing either hPD-1 or hCD80.

[16] = molecular target: T5, Biotinylated hPD-L1-Fc-Avi; experiment: cell-based RBA, blocking of hPD-L1-Fc-Avi binding to HEK293 hCD80 cells
Method: as §2

T1 sequence (Q9NZQ7 19-290 limits assumed): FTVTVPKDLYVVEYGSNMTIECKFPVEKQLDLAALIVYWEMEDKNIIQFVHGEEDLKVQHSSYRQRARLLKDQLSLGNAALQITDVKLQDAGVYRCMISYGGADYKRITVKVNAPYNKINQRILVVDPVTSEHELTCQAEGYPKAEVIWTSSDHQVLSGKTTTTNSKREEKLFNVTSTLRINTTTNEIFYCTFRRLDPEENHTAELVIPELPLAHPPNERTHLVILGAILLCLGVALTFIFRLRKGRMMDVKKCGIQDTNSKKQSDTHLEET
T3 sequence (Q9NZQ7 other isoform, or with tags, fused parts or gaps limits assumed): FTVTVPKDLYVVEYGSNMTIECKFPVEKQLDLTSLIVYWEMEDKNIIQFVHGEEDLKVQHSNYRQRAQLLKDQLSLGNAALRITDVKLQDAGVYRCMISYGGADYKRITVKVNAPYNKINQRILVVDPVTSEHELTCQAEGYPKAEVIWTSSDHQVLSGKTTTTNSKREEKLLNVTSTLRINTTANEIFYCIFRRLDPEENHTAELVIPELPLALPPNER
T2 sequence (Q9NZQ7 19-238 limits assumed): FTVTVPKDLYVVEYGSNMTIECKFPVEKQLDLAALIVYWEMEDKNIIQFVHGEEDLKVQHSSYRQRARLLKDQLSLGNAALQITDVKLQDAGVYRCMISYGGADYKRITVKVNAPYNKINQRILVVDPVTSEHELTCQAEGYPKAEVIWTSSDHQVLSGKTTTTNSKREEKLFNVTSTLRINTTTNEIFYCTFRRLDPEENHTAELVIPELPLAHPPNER
T5 sequence (Q9NZQ7 19-238 limits assumed): as above
T4 sequence (Q9NZQ7 other isoform, or with tags, fused parts or gaps limits assumed): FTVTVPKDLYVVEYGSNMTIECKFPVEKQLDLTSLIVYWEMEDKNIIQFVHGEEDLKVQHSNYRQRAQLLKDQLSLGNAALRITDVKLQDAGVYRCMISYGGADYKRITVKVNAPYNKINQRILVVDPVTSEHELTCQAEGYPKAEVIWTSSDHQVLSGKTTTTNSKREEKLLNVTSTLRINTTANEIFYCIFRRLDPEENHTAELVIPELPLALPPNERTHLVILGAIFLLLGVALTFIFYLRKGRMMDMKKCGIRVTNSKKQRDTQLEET

B1: FS17-33-488AA/MSL109 (bispecific antibody, human IgG1, kappa, L234A L235A)
heavy: EEQVLESGGGLVKPGGSLRLSCAASGFTFSPYSVFWVRQAPGKGLEWVSSINSDSTYKYYADSVKGRFTISRDNAENSIFLQMNSLRAEDTAVYYCARDRSYYAFSSGSLSDYYYGLDVWGQGTTVIVSSASTKGPSVFPLAPSSKSTSGGTAALGCLVKDYFPEPVTVSWNSGALTSGVHTFPAVLQSSGLYSLSSVVTVPSSSLGTQTYICNVNHKPSNTKVDKKVEPKSCDKTHTCPPCPAPEAAGGPSVFLFPPKPKDTLMISRTPEVTCVVVDVSHEDPEVKFNWYVDGVEVHNAKTKPREEQYNSTYRVVSVLTVLHQDWLNGKEYKCKVSNKALPAPIEKTISKAKGQPREPQVYTLPPSRDEEGYWVSLTCLVKGFYPSDIAVEWESNGEPQYWAKTTPPVPDSDGTFFLYSKLTVSNWRWQLGDAFSCSVMHEALRNHYTQKSLSLSPGK
light: DIVMTQSPLSLSVTPGEPASISCRSSQSLLHTNGYNYLDWYVQKPGQSPQLLIYLASNRASGVPDRFSGSGSGTDFTLKISRVETEDVGVYYCMQALQIPRTFGQGTKVEIKRTVAAPSVFIFPPSDEQLKSGTASVVCLLNNFYPREAKVQWKVDNALQSGNSQESVTEQDSKDSTYSLSSTLTLSKADYEKHKVYACEVTHQGLSSPVTKSFNRGEC
Question: How did the “DO11.10 EC50” value [1] turn out when B1 was run?
Answer: 3.25 nM

Question: What about the Kd [2] of the same binder?
Answer: 0.36 nM

Question: What about the koff [2] of the same binder?
Answer: 0.00036 s⁻¹

B2: Fcab FS17-33 with LALA mutation (pTT5-FS17-33AA) (designed binder)
chain: TCPPCPAPEAAGGPSVFLFPPKPKDTLMISRTPEVTCVVVDVSHEDPEVKFNWYVDGVEVHNAKTKPREEQYNSTYRVVSVLTVLHQDWLNGKEYKCKVSNKALPAPIEKTISKAKGQPREPQVYTLPPSRDEQSGYWVSLTCLVKGFYPSDIAVEWESNGQPENNYKTTPPVLDSDGSFFLYSKLTVSNWRWQMGDFSCSVMHEALHNHYTQKSLSLSPGK
Question: With B2 as the binder, how does the IC50 [3] read?
Answer: 17.7 nM

B3: Fcab FS17-33-37 with LALA mutation (designed binder)
chain: B2 chain with S135V, G196D
notes: also called FS17-33-37AA
Question: What does the source list for B3?
Answer: IC50 [3]: 8.1 nM; Kd [4]: 270 nM; koff [4]: 0.02 s⁻¹; kon [4]: 76000 M⁻¹ s⁻¹

B4: FS17-33-288AA/HelD1.3 mock mAb^2 (bispecific antibody, human IgG1, kappa, L234A L235A)
heavy: QVQLQESGPGLVRPSQTLSLTCTVSGSTFSGYGVNWVRQPPGRGLEWIGMIWGDGNTDYNSALKSRVTMLVDTSKNQFSLRLSSVTAADTAVYYCARERDYRLDYWGQGSLVTVSSASTKGPSVFPLAPSSKSTSGGTAALGCLVKDYFPEPVTVSWNSGALTSGVHTFPAVLQSSGLYSLSSVVTVPSSSLGTQTYICNVNHKPSNTKVDKKVEPKSCDKTHTCPPCPAPEAAGGPSVFLFPPKPKDTLMISRTPEVTCVVVDVSHEDPEVKFNWYVDGVEVHNAKTKPREEQYNSTYRVVSVLTVLHQDWLNGKEYKCKVSNKALPAPIEKTISKAKGQPREPQVYTLPPSRDESGYWVSLTCLVKGFYPSDIVVEWESNGEPQYWAKTTPPVLDSDGSFFLYSKLTVSNWRWQIDDFSCSVMHEALHNHYTQKSLSLSPGK
light: DIQMTQSPASLSASVGETVTITCRASGNIHNYLAWYQQKQGKSPQLLVYNAKTLADGVPSRFSGSGSGTQYSLKINSLQPEDFGSYYCQHFWSTPRTFGGGTKLEIKRTVAAPSVFIFPPSDEQLKSGTASVVCLLNNFYPREAKVQWKVDNALQSGNSQESVTEQDSKDSTYSLSSTLTLSKADYEKHKVYACEVTHQGLSSPVTKSFNRGEC
notes: also called F17-33-288AA/HelD1.3; F17-33-288AA/HELD1.3
Question: For B4, which Kd [5] is on record?
Answer: 2 nM

Question: What about the Kd [6] of the same binder?
Answer: 1.43 nM

Question: And the Kd [7]?
Answer: 15.2 nM

Question: And the Kd [8]?
Answer: 7.8 nM

Question: What about the “DO11.10 T cell activation assay EC50” value [9] of the same binder?
Answer: 0.428 nM

B5: FS17-33-334AA/HelD1.3 mock mAb^2 (bispecific antibody, human IgG1, kappa, L234A L235A)
heavy: B4 heavy with V376A, I417L
light: B4 light
Question: Which results are given for B5?
Answer: koff [10]: 0.000372 s⁻¹; Kd [5]: 1.9 nM; Kd [6]: 1.45 nM; DO11.10 EC50 [11]: 0.403 nM; Kd [7]: 8.9 nM; Kd [8]: 0.91 nM; DO11.10 T cell activation assay EC50 [9]: 0.934 nM; koff [12]: 0.000291 s⁻¹

B6: Fcab FS17-33-289 (designed binder)
chain: TCPPCPAPELLGGPSVFLFPPKPKDTLMISRTPEVTCVVVDVSHEDPEVKFNWYVDGVEVHNAKTKPREEQYNSTYRVVSVLTVLHQDWLNGKEYKCKVSNKALPAPIEKTISKAKGQPREPQVYTLPPSRDESGYWVSLTCLVKGFYPSDIVVEWESNGEPQYWAKTTPPVLDSDGSFFLYSKLTVSNWRWQLDDFSCSVMHEALHNHYTQKSLSLSPGK
Question: How did the Kd [13] turn out when B6 was run?
Answer: 0.66 nM

Question: What about the Kd [14] of the same binder?
Answer: 0.54 nM

Question: What about the EC50 [15] of the same binder?
Answer: 10.1 nM

Question: What about the Kd [7] of the same binder?
Answer: 1 nM

Question: And the Kd [8]?
Answer: 0.44 nM

Question: What about the EC50 [16] of the same binder?
Answer: 9.2 nM

B7: Fcab FS17-33-334 (designed binder)
chain: B6 chain with V153A
Question: What does the source list for B7?
Answer: Kd [13]: 2.18 nM; Kd [14]: 1.93 nM; EC50 [15]: 0.99 nM; Kd [7]: 2.06 nM; Kd [8]: 0.68 nM; EC50 [16]: 0.55 nM

B8: Fcab FS17-33-288 (designed binder)
chain: B6 chain with L194I
Question: With B8 as the binder, how does the Kd [13] read?
Answer: 2.1 nM

Question: What about the Kd [14] of the same binder?
Answer: 1.6 nM

Question: What about the EC50 [15] of the same binder?
Answer: 2.8 nM

Question: And the Kd [7]?
Answer: 2.5 nM

Question: What about the Kd [8] of the same binder?
Answer: 2.6 nM

Question: And the EC50 [16]?
Answer: 0.79 nM

B9: Fcab FS17-33-296 (designed binder)
chain: B6 chain with L194V
Question: For B9, which Kd [13] is on record?
Answer: 0.87 nM

Question: What about the Kd [14] of the same binder?
Answer: 0.73 nM

Question: What about the EC50 [15] of the same binder?
Answer: 9 nM

Question: And the Kd [7]?
Answer: 1 nM

Question: And the Kd [8]?
Answer: 0.5 nM

Question: And the EC50 [16]?
Answer: 8.8 nM
